Experimental findings from CN113912709A (SHENZHEN NATIONAL CLINICAL RES CENTER FOR INFECTIOUS …, dated 2022) are described below.

The assay addresses T1, SARS-CoV-2 RBD protein L452R mutant (SARS-CoV-2, UniProt P0DTC2 319-541).
T1 construct: domain: RBD
Briefly: SPR, Biacore 8K, RBD on CM5 chip, IgG injected, 1:1 model.

Numbering of substitutions follows the chain as printed.

B1: VacW-209 (antibody, V domains shown)
VH: QVQLVESGGGVVQPGRSLRLSCAASGFTFSSIAMHWVRQAPGKGLEWVAVMSFDGSIKYYGDSVKGRFTISRDNSKSTLYLQMNSLRAEDTAVYYCARGVQGYYDRSGYYNLDYNYGMDVWGQGTTVTVSS
VL: QSVLTQPPSVSGAPGQRVTISCTGSSSNIGAGYDVHWYQQLPGTAPKLLIYGNSNRPSGVPDRFSGSKSGTSASLAITGLQAEDEADYYCQSYDSSLSGWVFGGGTKLTVL
With B1, the affinity, expressed as Kd, was 0.0237 nM.

B2: VacW-201 (antibody, V domains shown)
VH: EVQLVESGGGLVQPGGSLRLSCAASGFTFSSYWMNWVRQAPGKGLEWVANIKQDGSEKYYVDSVKGRFTISRDNAKNSLYLQMNSLRAEDTAVYYCARMEYPYGGVDYWGQGTLVTVSS
VL: NFMLTQPHSVSESPGKTVTISCTGSSGSIASNYVQWYQQRPGSAPTTVIYEDNQRPSGVPDRFSGSIDSSSNSASLTISGLKTEDEADYYCQSYDSSNRNWVFGGGTKLTVL
With B2, the dissociation constant (Kd) (in general, the constant that tells how readily two partners part at equilibrium) stood at 1.57 nM.

B3: VacW-215 (antibody, V domains shown)
VH: EVQLVESGGGLIQPGGSLRLSCAASGFTVSSNYMSWVRQAPGKGLEWVSVIYSGGSTYYADSVKGRFTISRDNSKNTLYLQMNSLRAEDTAVYYCARSTWLRGGFDYWGQGTLVTVSS
VL: B2 VL with R99H, N100F, W101Y, G105T, L109V
B3 had a Kd of 0.714 nM.

B4: VacW-212 (antibody, V domains shown)
VH: B2 VH with G55E, Y80F, A88V, V106I, S119A
VL: B2 VL
As to B4, the dissociation constant Kd came out at 1.2 nM.

B5: VacW-105 (antibody, V domains shown)
VH: QVQLVQSGAEVKKPGSSVKVSCKASGGTFRSYTISWVRQAPGQGLEWMGRILPILGIANYAQKFQGRVTITADKSTSTAYMELSSLRSEDTAVYYCARVTGAPVESAAWFDPWGQGTLVTVSS
VL: not shown
With B5, binding was put at a Kd of 3.69 nM.

B6: VacW-138 (antibody, V domains shown)
VH: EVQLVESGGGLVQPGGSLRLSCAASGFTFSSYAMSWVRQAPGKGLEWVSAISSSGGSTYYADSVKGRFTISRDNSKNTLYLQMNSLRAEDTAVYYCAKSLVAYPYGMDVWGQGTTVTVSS
VL: AIQLTQSPFSLSASVGDRVTITCRASQGISSALAWYQQKPGKAPKLLIYDASSLESGVPSRFSGSGSGTDFTLTISSLQPEDFATYFCQQVDTYQFTFGPGTKVDIK
B6 gave a Kd of 1.96 nM.
